Experimental data published in paper PMC10819763, “Reconstitution of the phosphodiesterase 6 maturation process important for photoreceptor cell function” (The Journal of Biological Chemistry, 2023).
“And” between values parts separate entries of the source, which are not always exact repeats. Identical values can stand only once.

B1: His6-tagged bovine Pγr (rod PDE6 inhibitory γ-subunit), bacterially expressed (natural protein, UniProt P04972 1-87, looked up)
chain: MNLEPPKAEIRSATRVMGGPVTPRKGPPKFKQRQTRQFKSKPPKKGVQGFGDDIPGMEGLGTDITVICPWEAFNHLELHELAQYGII
notes: also called rod Pγ; purified recombinant Pγr
B2: human cone PDE6C (aa 1-830), expressed as an EGFP fusion protein and released with HRV-3C protease (enzyme, UniProt P51160 1-830, looked up)
chain: MGEINQVAVEKYLEENPQFAKEYFDRKLRVEVLGEIFKNSQVPVQSSMSFSELTQVEESALCLELLWTVQEEGGTPEQGVHRALQRLAHLLQADRCSMFLCRSRNGIPEVASRLLDVTPTSKFEDNLVGPDKEVVFPLDIGIVGWAAHTKKTHNVPDVKKNSHFSDFMDKQTGYVTKNLLATPIVVGKEVLAVIMAVNKVNASEFSKQDEEVFSKYLNFVSIILRLHHTSYMYNIESRRSQILMWSANKVFEELTDVERQFHKALYTVRSYLNCERYSIGLLDMTKEKEFYDEWPIKLGEVEPYKGPKTPDGREVNFYKIIDYILHGKEEIKVIPTPPADHWTLISGLPTYVAENGFICNMMNAPADEYFTFQKGPVDETGWVIKNVLSLPIVNKKEDIVGVATFYNRKDGKPFDEHDEYITETLTQFLGWSLLNTDTYDKMNKLENRKDIAQEMLMNQTKATPEEIKSILKFQEKLNVDVIDDCEEKQLVAILKEDLPDPRSAELYEFRFSDFPLTEHGLIKCGIRLFFEINVVEKFKVPVEVLTRWMYTVRKGYRAVTYHNWRHGFNVGQTMFTLLMTGRLKKYYTDLEAFAMLAAAFCHDIDHRGTNNLYQMKSTSPLARLHGSSILERHHLEYSKTLLQDESLNIFQNLNKRQFETVIHLFEVAIIATDLALYFKKRTMFQKIVDACEQMQTEEEAIKYVTVDPTKKEIIMAMMMTACDLSAITKPWEVQSQVALMVANEFWEQGDLERTVLQQQPIPMMDRNKRDELPKLQVGFIDFVCTFVYKEFSRFHKEITPMLSGLQNNRVEWKSLADEYDAKMKVIEEEA
notes: human PDE6C, cone cGMP phosphodiesterase catalytic subunit, truncation of the C-terminal 28 residues (aa 1-830); GFP and PDE6C cDNAs were spliced with primers containing the HRV-3C site and a FLAG tag, cloned into pFastBac HT A by Gibson assembly; also called EGFP-PDE6C; source: Sf9 cells (baculovirus), alone or co-expressed with AIPL1 or with AIPL1 and Pγ; purified (EGFP-nanobody resin, HRV-3C …)

Assays:
[1] = target: T1, trypsin-activated PDE6AB from mouse retina extract (mouse (endogenous in retina), UniProt P27664 1-859; P23440 1-856); assay: inhibition of enzyme activity (cGMP hydrolysis); trypsin-treated mouse retina extract inhibited by purified recombinant Pγr; 20 mM Tris-HCl pH 7.5, 120 mM NaCl, 2 mM MgSO4, 1 mM BME, 10 μM [3H]cGMP, 25 °C; settings: one partner purified
T1 construct: mouse rod PDE6 catalytic subunit PDE6A, after trypsin treatment of the retina lysate; mouse rod PDE6 catalytic subunit PDE6B, after trypsin treatment of the retina lysate; Trypsin treatment degrades the endogenous Pγ; The retina extract also holds a few percent of cone PDE6C activity; also called mouse rod PDE6; source: endogenous, C57BL/J mouse retina lysate, trypsin-treated; copies: 1 + 1

[2] = target: B2; assay: inhibition of enzyme activity (cGMP hydrolysis); purified PDE6C (co-expressed with AIPL1) inhibited by purified recombinant Pγr; 20 mM Tris-HCl pH 7.5, 120 mM NaCl, 2 mM MgSO4, 1 mM BME, 10 μM [3H]cGMP, 25 °C; settings: both partners purified
[3] = target: the molecule itself; assay: SEC; PDE6C co-expressed with AIPL1, eluted from EGFP-nanobody resin with HRV-3C, preincubated with 3 mM ATP for 10 min at 25 °C; Superose 6 10/300 GL in 10 mM HEPES pH 7.5, 150 mM NaCl, 1 mM TCEP, 2 mM MgCl2

T1 sequence (P27664 whole entry, chain 1 of 2): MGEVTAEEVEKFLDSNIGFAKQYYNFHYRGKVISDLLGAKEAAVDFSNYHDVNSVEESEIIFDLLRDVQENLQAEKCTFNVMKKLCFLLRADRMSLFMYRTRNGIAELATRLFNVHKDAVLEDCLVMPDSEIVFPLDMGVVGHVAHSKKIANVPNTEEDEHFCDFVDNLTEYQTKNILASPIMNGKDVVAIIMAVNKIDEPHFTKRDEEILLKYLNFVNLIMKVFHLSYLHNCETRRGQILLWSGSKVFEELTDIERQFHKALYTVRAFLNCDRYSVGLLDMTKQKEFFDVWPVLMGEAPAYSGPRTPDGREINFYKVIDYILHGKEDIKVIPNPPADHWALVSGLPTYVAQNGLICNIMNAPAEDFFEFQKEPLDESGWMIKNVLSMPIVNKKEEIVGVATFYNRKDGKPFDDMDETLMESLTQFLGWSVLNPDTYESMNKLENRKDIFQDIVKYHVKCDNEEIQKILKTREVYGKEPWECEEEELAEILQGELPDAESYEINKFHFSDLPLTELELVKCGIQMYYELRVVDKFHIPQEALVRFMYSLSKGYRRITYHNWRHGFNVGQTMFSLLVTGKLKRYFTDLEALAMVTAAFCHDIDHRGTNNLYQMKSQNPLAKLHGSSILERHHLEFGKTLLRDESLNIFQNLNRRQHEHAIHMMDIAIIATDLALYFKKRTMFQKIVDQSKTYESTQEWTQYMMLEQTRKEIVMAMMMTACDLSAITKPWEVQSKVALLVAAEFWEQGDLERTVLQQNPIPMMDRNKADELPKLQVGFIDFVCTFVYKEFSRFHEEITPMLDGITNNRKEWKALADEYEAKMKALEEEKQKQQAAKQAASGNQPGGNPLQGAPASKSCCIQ
T1 sequence (P23440 whole entry, chain 2 of 2): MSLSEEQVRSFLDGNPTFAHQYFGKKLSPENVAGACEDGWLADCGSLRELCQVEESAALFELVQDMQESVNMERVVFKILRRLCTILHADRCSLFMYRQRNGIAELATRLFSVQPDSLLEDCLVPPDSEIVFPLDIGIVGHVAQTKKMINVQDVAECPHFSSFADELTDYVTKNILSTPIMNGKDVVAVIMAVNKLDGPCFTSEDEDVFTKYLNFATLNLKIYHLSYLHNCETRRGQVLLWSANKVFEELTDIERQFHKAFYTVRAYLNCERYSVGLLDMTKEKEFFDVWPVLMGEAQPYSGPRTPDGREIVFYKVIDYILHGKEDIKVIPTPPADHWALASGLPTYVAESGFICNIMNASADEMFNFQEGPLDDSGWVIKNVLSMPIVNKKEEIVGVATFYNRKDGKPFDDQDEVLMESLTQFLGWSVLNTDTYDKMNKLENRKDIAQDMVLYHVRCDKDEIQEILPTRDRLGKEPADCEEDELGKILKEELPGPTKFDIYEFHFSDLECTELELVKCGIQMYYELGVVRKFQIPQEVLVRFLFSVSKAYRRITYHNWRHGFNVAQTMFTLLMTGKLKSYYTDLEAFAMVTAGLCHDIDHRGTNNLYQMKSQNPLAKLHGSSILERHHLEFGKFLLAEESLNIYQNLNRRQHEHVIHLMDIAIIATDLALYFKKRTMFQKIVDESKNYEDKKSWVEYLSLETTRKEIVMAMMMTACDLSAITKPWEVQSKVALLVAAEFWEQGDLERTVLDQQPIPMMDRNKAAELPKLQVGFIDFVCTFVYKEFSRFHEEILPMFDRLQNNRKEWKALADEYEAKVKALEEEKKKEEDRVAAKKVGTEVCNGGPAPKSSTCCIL

B1
Ki [1]: 0.089 nM | Ki [2]: 0.095 nM and 0.088 nM

B2
stoichiometry N [3]: 2
